This is an account of results in patent US20110239319, “Use of Endonucleases for Inserting Transgenes Into Safe Harbor Loci” (published 2011).

Changes are numbered by the printed parent chain.

Holding throughout (assay): cell_activity; endogenous locus, 293H
One series concerns the target T1, SCOH-SH18-b11-C.2 (artificial).
T1 chain: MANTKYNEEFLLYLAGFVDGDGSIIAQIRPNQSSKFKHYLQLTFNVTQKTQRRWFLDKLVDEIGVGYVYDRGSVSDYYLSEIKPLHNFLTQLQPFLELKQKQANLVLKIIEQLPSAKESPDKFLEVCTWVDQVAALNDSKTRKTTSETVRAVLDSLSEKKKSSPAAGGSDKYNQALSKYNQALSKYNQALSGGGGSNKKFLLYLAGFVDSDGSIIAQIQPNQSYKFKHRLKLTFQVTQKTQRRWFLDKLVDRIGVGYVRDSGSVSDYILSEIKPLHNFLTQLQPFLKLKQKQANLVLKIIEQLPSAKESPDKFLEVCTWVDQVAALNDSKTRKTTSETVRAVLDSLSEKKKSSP
The procedure: (§1) Human embryonic kidney 293H cells (Invitrogen) were plated at a density of 1×10⁶ cells per 10 cm dish in complete medium (DMEM supplemented with 2 mM L-glutamine, penicillin (100 UI/ml), streptomycin (100 μg/ml), amphotericin B (Fongizone) (0.25 μg/ml) (Invitrogen-Life Science) and 10% FBS). The next day, cells were transfected with 3 μg of single-chain meganuclease expression vector using Lipofectamine 2000 transfection reagent (Invitrogen) according to the supplier's protocol. After 2 to 6 days of incubation at 37° C., cells were trypsinized and genomic DNA extraction was performed with the DNeasy blood and tissue kit (Qiagen) according to the supplier's protocol.
(§2) Human embryonic kidney 293H cells were transfected with a plasmid expressing a single-chain safe harbor meganuclease. After 2 to 6 days of incubation at 37° C., genomic DNA was isolated and PCR was used to amplify the genomic sequence surrounding the meganuclease target site. Sequences were then analyzed for the presence of insertions or deletions events (InDel) in the cleavage site of each safe harbor target.

The next series has as its target T2, SCOH-SH13 (artificial).
T2 chain: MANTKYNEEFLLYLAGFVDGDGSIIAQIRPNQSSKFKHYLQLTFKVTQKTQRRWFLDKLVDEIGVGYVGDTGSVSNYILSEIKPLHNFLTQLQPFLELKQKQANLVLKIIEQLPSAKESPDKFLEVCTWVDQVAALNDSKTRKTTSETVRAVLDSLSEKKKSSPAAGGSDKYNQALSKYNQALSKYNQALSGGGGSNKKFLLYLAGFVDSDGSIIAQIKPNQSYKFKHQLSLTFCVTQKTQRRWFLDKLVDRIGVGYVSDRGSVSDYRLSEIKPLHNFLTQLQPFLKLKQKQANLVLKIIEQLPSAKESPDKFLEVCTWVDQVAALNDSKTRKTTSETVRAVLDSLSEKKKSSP
On the procedure: as §1, §2

In another series the target is T3, SCOH-SH6-b12-G2_BQY (artificial).
T3 chain: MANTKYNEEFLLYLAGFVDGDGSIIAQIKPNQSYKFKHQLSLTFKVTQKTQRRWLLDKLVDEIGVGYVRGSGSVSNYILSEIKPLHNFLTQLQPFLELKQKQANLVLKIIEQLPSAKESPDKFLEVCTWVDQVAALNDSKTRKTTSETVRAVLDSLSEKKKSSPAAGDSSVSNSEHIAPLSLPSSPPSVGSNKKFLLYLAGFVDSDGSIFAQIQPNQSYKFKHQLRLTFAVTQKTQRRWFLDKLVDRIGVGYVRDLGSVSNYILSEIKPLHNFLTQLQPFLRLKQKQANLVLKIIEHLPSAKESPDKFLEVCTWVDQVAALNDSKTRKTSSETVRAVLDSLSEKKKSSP
On the procedure:
as §1, §2

The target in a further series is T4, SCOH-SH6-b11-G2.2_BQY (artificial).
T4 chain: T3 chain with G70D, S71R, N76D
On the procedure:
as §1, §2

In series [1] the target is T5, QCSH61-H01a (SCOH-QCSH6-H01) (artificial).
T5 chain: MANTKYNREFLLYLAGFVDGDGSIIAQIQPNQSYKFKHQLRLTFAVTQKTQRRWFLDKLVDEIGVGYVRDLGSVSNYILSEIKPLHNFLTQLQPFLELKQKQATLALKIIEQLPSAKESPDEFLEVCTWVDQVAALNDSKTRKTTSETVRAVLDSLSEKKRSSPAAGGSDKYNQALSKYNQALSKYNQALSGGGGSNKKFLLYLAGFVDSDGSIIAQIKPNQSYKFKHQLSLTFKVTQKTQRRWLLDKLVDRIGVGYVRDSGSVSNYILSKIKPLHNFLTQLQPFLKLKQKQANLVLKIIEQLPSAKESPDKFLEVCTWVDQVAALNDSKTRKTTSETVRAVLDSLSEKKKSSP
On the procedure: as §1, §2

The target of series [2] is T6, QCSH61-H01b (QC-SH6-H01_7E) (artificial).
T6 chain: T5 chain with R8E
The procedure:
as §1, §2

The target in series [3] is T7, QCSH61-H01d (QC-SH6-H01_V2_7E_70R75D) (artificial).
T7 chain: T5 chain with R8E, S261R, N266D
The procedure: as §1, §2

The next series concerns the target T8, SCOH-SH8 (artificial).
T8 chain: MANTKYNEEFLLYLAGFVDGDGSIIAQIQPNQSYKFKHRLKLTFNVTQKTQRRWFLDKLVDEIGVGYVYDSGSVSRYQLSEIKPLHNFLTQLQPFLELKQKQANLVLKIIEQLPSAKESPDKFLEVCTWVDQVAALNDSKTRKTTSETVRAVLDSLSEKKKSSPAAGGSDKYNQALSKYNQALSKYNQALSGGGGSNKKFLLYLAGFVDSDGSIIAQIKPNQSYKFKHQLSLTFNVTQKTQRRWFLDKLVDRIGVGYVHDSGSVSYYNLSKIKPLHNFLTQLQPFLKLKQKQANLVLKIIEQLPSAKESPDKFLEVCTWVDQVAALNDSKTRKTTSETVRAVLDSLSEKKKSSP
On the procedure: as §1, §2

B1: SH18 target (dsDNA)
DNA 1: CTTACCCCACGTACCACAGACTGT
DNA 2: ACAGTCTGTGGTACGTGGGGTAAG
B1 came in with an activity with SCOH-SH18-b11-C.2 of 1.2 % InDels.

B2: SH13 target (dsDNA)
DNA 1: ATTACACTCTTTAAGTGATTTTAA
DNA 2: TTAAAATCACTTAAAGAGTGTAAT
For the molecule B2, in the series with SCOH-SH13, the activity turned out to be 1.5 % InDels.

B3: SH6 target (dsDNA)
DNA 1: TTAATACCCCGTACCTAATATTGC
DNA 2: GCAATATTAGGTACGGGGTATTAA
For the molecule B3, the activity with SCOH-SH6-b12-G2_BQY stood at 1 % InDels; in the series with SCOH-SH6-b11-G2.2_BQY, 3 % InDels; in series [1] it was 0.6 % InDels; in series [2], 1.5 % InDels; in series [3] it was 3.5 % InDels.

B4: SH8 target (dsDNA)
DNA 1: ACAATCTGAGGTAAGTAATACTGA
DNA 2: TCAGTATTACTTACCTCAGATTGT
As for B4, the activity with SCOH-SH8 was 0.5 % InDels.
